Source: PMC10794133, “Structures of the promoter-bound respiratory syncytial virus polymerase”

How the values were obtained:
[1] = molecular target: T1, RSV L (RNA-dependent RNA polymerase);RSV P (phosphoprotein) (human respiratory syncytial virus, …, UniProt P28887;P03421 1-2165;1-241, |); assay: cryo-EM structure; GTP and CpNpp supplemented (no product density); pre-initiation at position 3; Cryo-EM grid conditions not in the material; protein in 25 mM HEPES pH 7.4, 300 mM NaCl, 6 mM MgSO4, 0.5 mM TCEP (gel filtration buffer); conditions: protein: recombinant;recombinant; tags: N-terminal 6xHis-TEV, TEV-treated;; copies: 1;4; single strand
[2] = molecular target: T1, RSV L (RNA-dependent RNA …); assay: cryo-EM structure; pre-initiation at position 1; Cryo-EM grid conditions not in the material; protein in 25 mM HEPES pH 7.4, 300 mM NaCl, 6 mM MgSO4, 0.5 mM TCEP (gel filtration buffer); conditions: protein: recombinant;recombinant; tags: N-terminal 6xHis-TEV, TEV-treated;; copies: 1;4; single strand

T1 sequence (P28887 whole entry, chain 1 of 2): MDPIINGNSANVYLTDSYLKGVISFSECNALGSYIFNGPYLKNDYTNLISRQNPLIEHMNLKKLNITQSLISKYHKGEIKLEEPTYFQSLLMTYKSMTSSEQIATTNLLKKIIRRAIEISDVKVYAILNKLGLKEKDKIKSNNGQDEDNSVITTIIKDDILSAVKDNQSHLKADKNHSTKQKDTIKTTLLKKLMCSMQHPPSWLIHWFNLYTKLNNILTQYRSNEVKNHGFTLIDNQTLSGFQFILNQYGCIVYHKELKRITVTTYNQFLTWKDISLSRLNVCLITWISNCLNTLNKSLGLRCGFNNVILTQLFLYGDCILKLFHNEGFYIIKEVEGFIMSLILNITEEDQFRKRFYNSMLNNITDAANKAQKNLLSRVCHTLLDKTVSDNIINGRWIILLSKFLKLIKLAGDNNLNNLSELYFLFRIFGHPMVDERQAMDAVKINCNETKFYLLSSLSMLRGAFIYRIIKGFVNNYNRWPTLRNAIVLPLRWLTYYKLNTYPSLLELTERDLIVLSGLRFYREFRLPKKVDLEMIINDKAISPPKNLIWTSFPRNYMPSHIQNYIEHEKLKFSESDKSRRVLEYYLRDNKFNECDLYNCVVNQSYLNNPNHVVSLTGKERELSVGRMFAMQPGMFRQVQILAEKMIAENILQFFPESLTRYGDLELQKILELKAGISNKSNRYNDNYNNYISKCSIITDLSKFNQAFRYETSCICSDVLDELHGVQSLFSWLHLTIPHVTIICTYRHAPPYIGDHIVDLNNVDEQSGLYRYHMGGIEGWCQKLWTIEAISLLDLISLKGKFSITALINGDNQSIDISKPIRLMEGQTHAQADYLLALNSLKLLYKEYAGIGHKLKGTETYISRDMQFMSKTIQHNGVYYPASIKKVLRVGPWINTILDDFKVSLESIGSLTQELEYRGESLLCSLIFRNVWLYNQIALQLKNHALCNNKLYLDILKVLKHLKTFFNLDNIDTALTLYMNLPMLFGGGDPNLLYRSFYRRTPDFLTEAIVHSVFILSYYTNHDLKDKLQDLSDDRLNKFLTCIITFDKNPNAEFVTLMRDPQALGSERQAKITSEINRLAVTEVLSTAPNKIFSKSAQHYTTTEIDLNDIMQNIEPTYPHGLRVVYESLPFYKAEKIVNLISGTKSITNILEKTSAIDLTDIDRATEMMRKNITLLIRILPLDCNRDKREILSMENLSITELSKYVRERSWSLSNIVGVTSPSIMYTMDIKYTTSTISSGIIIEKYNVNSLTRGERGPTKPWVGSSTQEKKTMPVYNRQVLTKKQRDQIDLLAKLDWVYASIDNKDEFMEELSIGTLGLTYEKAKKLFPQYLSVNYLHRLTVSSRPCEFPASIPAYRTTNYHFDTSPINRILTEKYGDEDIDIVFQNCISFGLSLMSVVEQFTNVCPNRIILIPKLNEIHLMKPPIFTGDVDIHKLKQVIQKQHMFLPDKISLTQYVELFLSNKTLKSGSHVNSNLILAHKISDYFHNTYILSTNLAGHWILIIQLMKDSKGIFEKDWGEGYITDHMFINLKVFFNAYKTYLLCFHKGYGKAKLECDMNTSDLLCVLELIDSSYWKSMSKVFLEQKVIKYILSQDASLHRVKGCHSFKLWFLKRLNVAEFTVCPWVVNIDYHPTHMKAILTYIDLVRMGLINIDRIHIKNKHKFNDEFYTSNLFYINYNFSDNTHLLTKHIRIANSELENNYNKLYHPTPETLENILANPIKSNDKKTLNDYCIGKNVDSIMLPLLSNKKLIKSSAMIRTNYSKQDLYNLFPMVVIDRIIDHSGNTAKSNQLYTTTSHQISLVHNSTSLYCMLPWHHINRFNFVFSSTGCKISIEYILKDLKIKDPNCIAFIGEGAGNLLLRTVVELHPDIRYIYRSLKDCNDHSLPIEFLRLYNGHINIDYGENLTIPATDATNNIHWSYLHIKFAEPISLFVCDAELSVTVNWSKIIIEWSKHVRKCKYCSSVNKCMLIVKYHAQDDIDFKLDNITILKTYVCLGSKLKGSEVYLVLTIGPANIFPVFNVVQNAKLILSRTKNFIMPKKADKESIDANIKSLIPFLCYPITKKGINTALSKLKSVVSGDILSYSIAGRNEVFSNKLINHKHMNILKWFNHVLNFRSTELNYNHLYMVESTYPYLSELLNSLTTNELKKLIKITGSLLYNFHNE
T1 sequence (P03421 whole entry, chain 2 of 2): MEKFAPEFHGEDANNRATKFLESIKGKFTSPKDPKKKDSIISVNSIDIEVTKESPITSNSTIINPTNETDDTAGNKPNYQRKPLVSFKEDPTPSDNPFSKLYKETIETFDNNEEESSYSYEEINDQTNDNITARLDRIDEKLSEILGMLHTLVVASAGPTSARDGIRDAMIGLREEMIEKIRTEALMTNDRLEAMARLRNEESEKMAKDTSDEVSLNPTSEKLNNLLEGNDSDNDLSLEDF

Binder	binding result [1]	binding result [2]
UUUUUCGCGU (ssRNA) [Le10 (3' leader promoter of genome)]	binds	
UUUUUCUCGU (ssRNA) [TrC10 (3' trailer complementary promoter of antigenome)]		binds
